Reference: patent publication US20250243282A1 (TRUEBINDING, published 2025)

How the values were obtained:
[1] = target: T1, human Gal3 protein (recombinant human Galectin-3) (human, UniProt P17931 2-250); assay: ELISA blocking assay (blocked partner not stated), in-use stability bag #1, 2 h
T1 construct: also called hGal3; hGAL3

[2] = target: T1, human Gal3 protein (recombinant human …); assay: ELISA blocking assay (blocked partner not stated), in-use stability bag #2, 0.5 h
[3] = target: T1, human Gal3 protein (recombinant human …); assay: ELISA biological activity, accelerated stability 25°C/60% RH, 1 month
[4] = target: T1, human Gal3 protein (recombinant human …); assay: BLI binding activity, long-term stability 5°C, 1 month
[5] = target: T1, human Gal3 protein (recombinant human …); assay: ELISA blocking assay (blocked partner not stated), in-use stability bag #1, 0 h; Bag #1, 0 h
[6] = target: T1, human Gal3 protein (recombinant human …); assay: ELISA blocking assay (blocked partner not stated), in-use stability bag #1, 1 h
[7] = target: T1, human Gal3 protein (recombinant human …); assay: ELISA blocking assay (blocked partner not stated), in-use stability bag #2, 1 h
[8] = target: T1, human Gal3 protein (recombinant human …); assay: ELISA biological activity, long-term stability 5°C, 1 month
[9] = target: T1, human Gal3 protein (recombinant human …); assay: BLI binding activity, accelerated stability 25°C/60% RH, 0 months
[10] = target: T1, human Gal3 protein (recombinant human …); assay: ELISA biological activity, long-term stability 5°C, 0 months; 5° C., 0 months
mouse Gal3 = mouse Gal3 (mouse, UniProt P16110 2-264); assay: method not stated (FIG. 20)
mouse Gal3, sequence (P16110 2-264 limits assumed): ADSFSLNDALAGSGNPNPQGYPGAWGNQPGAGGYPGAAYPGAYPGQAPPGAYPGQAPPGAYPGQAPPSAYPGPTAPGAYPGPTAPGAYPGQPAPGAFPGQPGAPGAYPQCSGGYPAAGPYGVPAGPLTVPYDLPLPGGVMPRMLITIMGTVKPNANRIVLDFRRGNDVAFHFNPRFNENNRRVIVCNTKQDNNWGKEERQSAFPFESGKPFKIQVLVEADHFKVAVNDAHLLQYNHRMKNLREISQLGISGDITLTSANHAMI

[11] = target: T1, human Gal3 protein (recombinant human …); assay: method not stated (FIG. 20)
[12] = target: T2, Recombinant human Gal3 (rhGal3) (TrueBinding, #QC200361) (human, UniProt P17931 2-250); assay: cell-based or functional assay
[13] = target: T1, human Gal3 protein (recombinant human …); assay: ELISA biological activity, accelerated stability 25°C/60% RH, 0 months
[14] = target: T1, human Gal3 protein (recombinant human …); assay: BLI binding activity, accelerated stability 25°C/60% RH, 3 months
[15] = target: T1, human Gal3 protein (recombinant human …); assay: BLI binding activity, long-term stability 5°C, 3 months
[16] = target: T1, human Gal3 protein (recombinant human …); assay: BLI binding activity, accelerated stability 25°C/60% RH, 1 month
[17] = target: T1, human Gal3 protein (recombinant human …); assay: ELISA biological activity, accelerated stability 25°C/60% RH, 3 months
[18] = target: T1, human Gal3 protein (recombinant human …); assay: BLI binding activity, long-term stability 5°C, 0 months
[19] = target: T1, human Gal3 protein (recombinant human …); assay: ELISA blocking assay (blocked partner not stated), in-use stability bag #1, 4 h
[20] = target: T1, human Gal3 protein (recombinant human …); assay: ELISA blocking assay (blocked partner not stated), in-use stability bag #2, 4 h
[21] = target: T1, human Gal3 protein (recombinant human …); assay: ELISA biological activity, long-term stability 5°C, 3 months
[22] = target: T2, Recombinant human Gal3 (rhGal3) …; assay: cell-based or functional assay; remark: listed apart in the source
[23] = target: T1, human Gal3 protein (recombinant human …); assay: ELISA blocking assay (blocked partner not stated), in-use stability bag #1, 0.5 h
[24] = target: T1, human Gal3 protein (recombinant human …); assay: ELISA blocking assay (blocked partner not stated), in-use stability bag #2, 2 h
[25] = target: T1, human Gal3 protein (recombinant human …); assay: ELISA blocking assay (blocked partner not stated), in-use stability bag #2, 0 h
[26] = target: T2, Recombinant human Gal3 (rhGal3) …; assay: cell-based or functional assay; remark: listed apart in the source
[27] = target: T1, human Gal3 protein (recombinant human …)
[28] = target: T1, human Gal3 protein (recombinant human …); assay: SPR (Carterra LSA), antibody immobilised on HC200M chip, hGal3 injected
[29] = target: T1, human Gal3 protein (recombinant human …); assay: ELISA, hGal3 coated, receptor in solution

T1 sequence (P17931 2-250 limits assumed): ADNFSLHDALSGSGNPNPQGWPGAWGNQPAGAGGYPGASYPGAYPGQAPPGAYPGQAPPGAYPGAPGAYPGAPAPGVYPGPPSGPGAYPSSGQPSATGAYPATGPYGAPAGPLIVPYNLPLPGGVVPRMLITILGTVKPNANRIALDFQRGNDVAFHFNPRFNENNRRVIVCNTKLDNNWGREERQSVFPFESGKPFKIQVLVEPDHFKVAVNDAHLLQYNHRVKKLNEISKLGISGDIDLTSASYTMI

B1: TB006 (antibody, human IgG4 S228P, kappa, V domains shown)
VH: QVQLVQSGAEVKKPGASVKVSCKASGYSFTNYYMHWVRQAPGQRLEWMGWIYPGSGNTNYNEKFQGRVTITADTSASTAYMELSSLRSEDTAVYYCSTAPGGFDVWGQGTTVTVSS
VL: DIVMTQTPLSLSVTPGQPASISCKSSKSLLHSDGITYLYWYLQKPGQSPQLLIYRMSNLASGVPDRFSGSGSGTDFTLKISRVEAEDVGVYYCAQMLEFPLTFGQGTKLEIKR
notes: also called 4A11.H3L1; IMT006a
B1 was tested. Which IC50 [1] did it give?
Its IC50 is 1.71 µg/mL.

And the IC50 [2]?
The IC50 was 1.66 µg/mL.

And the IC50 [3]?
The IC50 was 1.8 µg/mL.

And the Kd [4]?
Its Kd is 2.5 nM.

And the IC50 [5]?
Its IC50 is 1.01 µg/mL.

And the IC50 [6]?
Its IC50 is 1.43 µg/mL.

And the IC50 [7]?
Its IC50 is 1.63 µg/mL.

What about the IC50 [8] of the same binder?
Its IC50 is 1.8 µg/mL.

And the Kd [9]?
The Kd was 3 nM.

And the IC50 [10]?
The IC50 was 2.5 µg/mL.

What about the Kd (mouse Gal3) of the same binder?
Its Kd is 40 µM.

What about the Kd [11] of the same binder?
The Kd was 8.9 nM.

And the “% inhibition of CD62L shedding” value [12]?
Its value is 76.1%.

And the IC50 [13]?
Its IC50 is 2.5 µg/mL.

What about the Kd [14] of the same binder?
The Kd was 3.1 nM.

And the Kd [15]?
The Kd was 3 nM.

And the Kd [16]?
Its Kd is 2.5 nM.

What about the IC50 [17] of the same binder?
Its IC50 is 1.5 µg/mL.

And the Kd [18]?
Its Kd is 3 nM.

What about the IC50 [19] of the same binder?
The IC50 was 1.41 µg/mL.

What about the IC50 [20] of the same binder?
The IC50 was 1.35 µg/mL.

And the IC50 [21]?
The IC50 was 1.5 µg/mL.

And the “IC50 of blocking IL-6 secretion by HL60-derived neutrophils (rhGal3 + LPS)” value [22]?
The value was 0.0337 µM.

And the “IC50 of blocking TNFα secretion by HL60-derived neutrophils (rhGal3 + LPS)” value [22]?
Its value is 0.0111 µM.

And the IC50 [23]?
The IC50 was 1.34 µg/mL.

And the IC50 [24]?
Its IC50 is 1.67 µg/mL.

And the IC50 [25]?
The IC50 was 1.05 µg/mL.

B2: TB001 (antibody, human IgG4 S228P, kappa, V domains shown)
VH: QVQLVQSGSELKKPGASVKVSCKASGYTFTNYGMNWVRQAPGQGLKWMGWINTNTGEPTYVEEFTGRFVFSLETSVSTAYLQISSLKAEDTAVYFCAPYDNFFAYWGQGTTVTVSS
VL: DIVLTQSPLSLPVTPGEPASISCRSSKSLLYKDGKTYLNWFLQKPGQSPQLLIYLMSTHASGVPDRFSGSGSGTDFTLKISRVEAEDVGVYYCQQLVDYPLTFGGGTKLEIKR
For B2, which “% inhibition of CD62L shedding” value [12] is on record?
Its value is 87.2%.

And the “% inhibition of IL-6 secretion” value [26]?
Its value is 45.6%.

And the “% inhibition of TNFα secretion” value [26]?
Its value is 81.4%.

And the “IC50 of blocking IL-6 secretion by HL60-derived neutrophils (rhGal3 + LPS)” value [22]?
Its value is 0.509 µM.

And the “IC50 of blocking TNFα secretion by HL60-derived neutrophils (rhGal3 + LPS)” value [22]?
Its value is 0.393 µM.

B3: 24D12.2H9 (antibody, human IgG4 S228P, kappa, V domains shown)
VH: QVQLKQSGPGLVQPSQSLSITCTVSGFSLTSYGVHWVRQAPGKGLEWLGVIWSGGSTDYNAAFMSRLSISKDNSKSQVFFKMNSLQADDTAIYYCAKSPDGYDVAWFGYWGQGTLVTVSA
VL: DIVMTQSHKFMSTSVGDRVSITCKASQDVRTAVAWYQQKPGQSPKLLIYWASTRHTGVPDRFTGSGSGTDFTLTLSNVQSEDLADYFCQQYSSYPWTFGGGTKLEIKR
How did the “% inhibition of CD62L shedding” value [12] turn out when B3 was run?
The value was 73.1%.

And the “% inhibition of IL-6 secretion” value [26]?
The value was 22.3%.

What about the “% inhibition of TNFα secretion” value [26] of the same binder?
The value was 46.5%.

And the “% blocking” value [27]?
The value was 55%.

B4: 847.15F9 (antibody, V domains shown)
VH: QVQMKQSGPGLVQPSQSLSITCTVSGFSLINYGVHWVRQSPGKGLEWLGVIWSGGSTDYNAAFISRLSISKDNSKSQVFFKMNSLQADDTAIYYCARIYYYGRGYAMDYWGQGTSVTVSS
VL: QIVLSQSPAILSASPGEKVTMTCRASSSVTYMYWYQQKPGSSPQPWIYATSNLASGVPARFSGSGSGTSYSLTISRVEAEDAATYYCQQWSSNPLTFGAGTKLELK
Which “% inhibition of CD62L shedding” value [12] does the source give for B4 here?
The value was 8.5%.

And the “% inhibition of IL-6 secretion” value [26]?
Its value is 16.6%.

What about the “% inhibition of TNFα secretion” value [26] of the same binder?
Its value is -178%.

Does B4 bind [28]?
Result: no binding

B5: 847.21B11 (antibody, V domains shown)
VH: QVQLKQSGPGLVAPSQSLSITCTVSGFSLTSYGVHWVRQPPGKGLEWLGIIWAGGSTNYNPALMSRLSISKDKSKSQVFLKMNSLKTDDTAMYYCARDRASLLRPGAMDYWGQGTSVTVSS
VL: DIVMTQSQKFMSTSVGDRVSVTCKASQNVGINVAWYQQKPGQSPKALIYSASYRYSGVPDRFTGSGSGTDFTLTISNVQSEDLAEYFCQQYNSYPYTFGGGTKLEMK
For B5, which “% inhibition of CD62L shedding” value [12] is on record?
The value was 16.4%.

And the “% inhibition of IL-6 secretion” value [26]?
The value was 27.3%.

And the “% inhibition of TNFα secretion” value [26]?
The value was -136%.

Does B5 bind [28]?
Result: no binding

B6: recombinant human CD147, 6xHis-tagged (R&D Systems, 972-EMN) (receptor, not shown: small tags and cut ends)
chain: AAGTVFTTVEDLGSKILLTCSLNDSATEVTGHRWLKGGVVLKEDALPGQKTEFKVDSDDQWGEYSCVFLPEPMGTANIQLHGPPRVKAVKSSEHINEGETAMLVCKSESVPPVTDWAWYKITDSEDKALMNGSESRFFVSSSQGRSELHIENLNMEADPGQYRCNGTSSKGSDQAIITLRVRSHLAAL
notes: also called hCD147; EMMPRIN
Does B6 bind [29]?
Result: binds

B7: 2D10.2B2 (antibody, mouse IgG2a, V domains shown)
VH: QVQLQQSGPELVKPGASVKISCKASGYTFTDYYINWVKQRPGQGLEWIGWIYPGSNDTKYNEKFKGKATLTVDTSSSTAYMQLGSLTSEDSAVYFCANYFGCSGWFFDVWGTGTTVTVSS
VL: DIVMTQAAFSNPVTLGTSASISCRSSKSLLHSDGITYLYWYLQRPGQSPQLLIYRMSNLASGVPDRFSGSGSGTDFTLRISRVEAEDVGVYYCAQMIEFPLTFGAGTILELKR
For B7, which “% blocking” value [27] is on record?
Its value is > 95%.

B8: 6H6.2D6 (antibody, human IgG4 S228P, kappa, V domains shown)
VH: QIQLVQSGPELKKPGETVKISCKASGYTFTTYGMSWVKQAPGKGLKWMAWINTYSGVPTYADDFKGRFAFSLETSASTAYLQINNLTNEDTATYFCARGPYAMDYWGQGTSVTVSS
VL: DIQMTQTTSSLSASLGDRVTISCSASQGISNYLNWYQQKPDGTVKLLIYYTSSLHSGVPSRFSGSGSGTDYSLTISNLEPEDIATYYCQQYSELPYTFGSGTKLEIKR
Which “% blocking” value [27] does the source give for B8 here?
The value was > 95%.

B9: mIMT001 (antibody, mouse IgG2a, V domains shown)
VH: QIQLVQSGPELKKPGETVKISCKASGYTFTNYGMNWVKQAPGKGLKWMGWINTNTGEPTYVEEFKGRFAFSLETSASTAYLQINNLKNEDTATYFCAPYDNFFAYWGQGTLVTVSA
VL: DIVITQDELSNPVTSGESVSISCRSSKSLLYKDGKTYLNWFLQRPGQSPQLLIYLMSTHASGVSDRFSGSGSGTDFTLEISRVKAEDVGVYYCQQLVDYPLTFGAGTKLELKR
notes: also called murine IMT1; mIMT1
Which “% blocking” value [27] does the source give for B9 here?
Its value is > 95%.
